Data reported in patent US20110311522A1.

Assays:
Test in all cases: cell-based or functional assay
[1] = molecular target: hemagglutinin (HA) of virus strain Ck/HK/Yu22/02 (H5N1) (H5N1 avian influenza virus, strain Ck/HK/Yu22/02)
[2] = molecular target: hemagglutinin (HA) of H5N1 virus strain GD1.1 (H5N1 avian influenza virus, strain GD1.1)
[3] = molecular target: H5 virus strain (fifteen strains of H5N1 viruses)
[4] = molecular target: hemagglutinin (HA) of H5N1 virus strain YN2.1 (H5N1 avian influenza virus, strain YN2.1)
[5] = molecular target: hemagglutinin (HA) of H5N1 virus strain QH1.1 (H5N1 avian influenza virus, strain QH1.1)
[6] = molecular target: hemagglutinin (HA) of H5N1 virus strain VTM1.1 (H5N1 avian influenza virus, strain VTM1.1)
[7] = molecular target: hemagglutinin (HA) of H5N1 virus strain Mixed1.1 (H5N1 avian influenza virus, strain Mixed1.1)
[8] = molecular target: hemagglutinin (HA) of H5N1 virus strain GD4.1 (H5N1 avian influenza virus, strain GD4.1)
[9] = molecular target: hemagglutinin (HA) of H5N1 virus strain HN3.1 (H5N1 avian influenza virus, strain HN3.1)
[10] = molecular target: hemagglutinin (HA) of H5N1 virus strain VNM2-2.1 (H5N1 avian influenza virus, strain VNM2-2.1)
[11] = molecular target: hemagglutinin (HA) of H5N1 virus strain IDN3.1 (H5N1 avian influenza virus, strain IDN3.1)
[12] = molecular target: hemagglutinin (HA) of H5N1 virus strain IDN8.1 (H5N1 avian influenza virus, strain IDN8.1)
[13] = molecular target: hemagglutinin (HA) of H5N1 virus strain FJ1.5 (H5N1 avian influenza virus, strain FJ1.5)
[14] = molecular target: hemagglutinin (HA) of H5N1 virus strain IDN6.1 (H5N1 avian influenza virus, strain IDN6.1)
[15] = molecular target: hemagglutinin (HA) of H5N1 virus strain GD3.1 (H5N1 avian influenza virus, strain GD3.1)
[16] = molecular target: 14 strains of non-H5 viruses (H1~H13, Chicken NDV)
[17] = molecular target: hemagglutinin (HA) of H5N1 virus strain VTM4.1 (H5N1 avian influenza virus, strain VTM4.1)
[18] = molecular target: hemagglutinin (HA) of H5N1 virus strain IDN1.1 (H5N1 avian influenza virus, strain IDN1.1)
[19] = molecular target: hemagglutinin (HA) of H5N1 virus strain A2 (H5N1 avian influenza virus, strain A2)
[20] = molecular target: hemagglutinin (HA) of H5N1 virus strain B3 (H5N1 avian influenza virus, strain B3)
[21] = molecular target: hemagglutinin (HA) of H5N1 virus strain G1 (H5N1 avian influenza virus, strain G1)
[22] = molecular target: hemagglutinin (HA) of H5N1 virus strain C3 (H5N1 avian influenza virus, strain C3)
[23] = molecular target: hemagglutinin (HA) of H5N1 virus strain E2 (H5N1 avian influenza virus, strain E2)
[24] = molecular target: hemagglutinin (HA) of H5N1 virus strain H2 (H5N1 avian influenza virus, strain H2)
[25] = molecular target: hemagglutinin (HA) of H5N1 virus strain B4 (H5N1 avian influenza virus, strain B4)
[26] = molecular target: hemagglutinin (HA) of H5N1 virus strain A7 (H5N1 avian influenza virus, strain A7)
[27] = molecular target: hemagglutinin (HA) of H5N1 virus strain D3 (H5N1 avian influenza virus, strain D3)
[28] = molecular target: hemagglutinin (HA) of H5N1 virus strain A1 (H5N1 avian influenza virus, strain A1)
[29] = molecular target: hemagglutinin (HA) of H5N1 virus strain D2 (H5N1 avian influenza virus, strain D2)
[30] = molecular target: hemagglutinin (HA) of H5N1 virus strain A3 (H5N1 avian influenza virus, strain A3)
[31] = molecular target: hemagglutinin (HA) of H5N1 virus strain F4 (H5N1 avian influenza virus, strain F4)
[32] = molecular target: hemagglutinin (HA) of H5N1 virus strain B7 (H5N1 avian influenza virus, strain B7)
[33] = molecular target: hemagglutinin (HA) of H5N1 virus strain A8 (H5N1 avian influenza virus, strain A8)
[34] = molecular target: hemagglutinin (HA) of H5N1 virus strain D1 (H5N1 avian influenza virus, strain D1)
[35] = molecular target: hemagglutinin (HA) of H5N1 virus strain F3 (H5N1 avian influenza virus, strain F3)
[36] = molecular target: hemagglutinin (HA) of H5N1 virus strain F2 (H5N1 avian influenza virus, strain F2)
[37] = molecular target: hemagglutinin (HA) of H5N1 virus strain B6 (H5N1 avian influenza virus, strain B6)
[38] = molecular target: hemagglutinin (HA) of H5N1 virus strain B1 (H5N1 avian influenza virus, strain B1)
[39] = molecular target: hemagglutinin (HA) of H5N1 virus strain C2 (H5N1 avian influenza virus, strain C2)
[40] = molecular target: hemagglutinin (HA) of H5N1 virus strain E1 (H5N1 avian influenza virus, strain E1)
[41] = molecular target: hemagglutinin (HA) of H5N1 virus strain B8 (H5N1 avian influenza virus, strain B8)
[42] = molecular target: hemagglutinin (HA) of H5N1 virus strain A6 (H5N1 avian influenza virus, strain A6)

B1: 8G9 chimeric antibody (antibody, V domains shown)
VH: QVQLQQPGVELVRPGASVKLSCKASGYTFTSFWMNWVKQRPDQGLEWIGRIDPYDSETHYNQKFKDKAILTVDKSSSTAYMQLSSLTSEDSAVYYCGRGIATLMVLPDYWGQGTSVTVSS
VL: DILMTQSPSSMSVSLGDTVSITCHASQDISSNMGWLQQKPGKSLKGLIYHGTNLEDGVPSRFSGSGSGPDYSLTISSLESEDFADYYCVQYIQFPWTFGGGTKLEIKR
With B1 the hemagglutination inhibition (HI) activity (fold dilution) [1] was 16.

B2: monoclonal antibody 20A11 (antibody, V domains shown)
VH: QVQLQQSGAELMKPGASVKISCKATGYTFSGHWIEWVKQRPGHGLEWIGEILPGSGNIHYNEKFKGKATFAADTSSNTAYMQLSSLTSEDSAVYYCARLGTTAVERDWYFDVWGQGTSVTVSS
VL: DIVMTQSQKFMSASVGDRVSVTCKASQNVGTHLAWYQQKPGQSPKALIYSASYRYSGVPDRFTGSGSGTDFTLTISNVQSGDLADYFCQQYNNFPLTFGAGTKLEIKR
B2 showed a Hamaglutinin inhibition titer [2] of 12800 titer, a Neutralization titer [2] of 12800 titer and a Positive number/total virus number, hemagglutination inhibition assay (of 15 virus strains positive) [3] of 15. For the same binder, the Hamaglutinin inhibition titer [4] was 12800 titer, the Neutralization titer [4] was 12800 titer and the Hamaglutinin inhibition titer [5] was 12800 titer. The Neutralization titer [5] was 12800 titer, the Hamaglutinin inhibition titer [6] was 12800 titer and the Neutralization titer [6] was 12800 titer. The Hamaglutinin inhibition titer [7] was 12800 titer, the Neutralization titer [7] was 12800 titer and the Hamaglutinin inhibition titer [8] was 12800 titer. For the same binder, the Neutralization titer [8] was 12800 titer, the Hamaglutinin inhibition titer [9] was 12800 titer and the Neutralization titer [9] was 6400 titer. For the same binder, the Hamaglutinin inhibition titer [10] was 12800 titer, the Neutralization titer [10] was 12800 titer and the Hamaglutinin inhibition titer [11] was 12800 titer. The Neutralization titer [11] was 12800 titer, the Hamaglutinin inhibition titer [12] was 12800 titer and the Neutralization titer [12] was 12800 titer. It also gave a Hamaglutinin inhibition titer [13] of 12800 titer, a Neutralization titer [13] of 12800 titer and a Hamaglutinin inhibition titer [14] of 12800 titer. The Neutralization titer [14] was 12800 titer, the Hamaglutinin inhibition titer [15] was 12800 titer and the Neutralization titer [15] was 12800 titer. For the same binder, the Positive number/total virus number, hemagglutination inhibition assay (of 14 virus strains positive) [16] was 0, the Hamaglutinin inhibition titer [17] was 12800 titer and the Neutralization titer [17] was 12800 titer. The Hamaglutinin inhibition titer [18] was 12800 titer and the Neutralization titer [18] was 12800 titer.

B3: 13D4 chimeric antibody SV (antibody, V domains shown)
VH: QVQLQQSGAELMKPGASVKISCKATGYTFSGHWIEWVKQRPGHGLEWIGEILPGSGNIHYNEKFKGKATFAADTSSNTAYMQLSSLTSEDSAVYYCARLGTTAVERDWYFDVWGQGTSVTVSS
VL: DIVMTQSQKFMSASVGDRVSVTCKASQNVGTHLAWYQQKPGQSPKALIYSASYRYSGVPDRFTGSGSGTDFTLTISNVQSGDLADYFCQQYNNFPLTFGAGTKLEIKR
B3 gave an HI titer (hemagglutinin inhibition assay) (n (HI titer = 2^n)) [19] of 7, an HI titer (hemagglutinin inhibition assay) (n (HI titer = 2^n)) [20] of 2 and an HI titer (hemagglutinin inhibition assay) (n (HI titer = 2^n)) [21] of 3. It also gave an HI titer (hemagglutinin inhibition assay) (n (HI titer = 2^n)) [22] of 4, an HI titer (hemagglutinin inhibition assay) (n (HI titer = 2^n)) [23] of 3 and an HI titer (hemagglutinin inhibition assay) (n (HI titer = 2^n)) [24] of 4. The HI titer (hemagglutinin inhibition assay) (n (HI titer = 2^n)) [25] was 4, the HI titer (hemagglutinin inhibition assay) (n (HI titer = 2^n)) [26] was 3.5 and the HI titer (hemagglutinin inhibition assay) (n (HI titer = 2^n)) [27] was 5.5. The HI titer (hemagglutinin inhibition assay) (n (HI titer = 2^n)) [28] was > 8, the HI titer (hemagglutinin inhibition assay) (n (HI titer = 2^n)) [29] was 5 and the HI titer (hemagglutinin inhibition assay) (n (HI titer = 2^n)) [30] was 5. For the same binder, the HI titer (hemagglutinin inhibition assay) (n (HI titer = 2^n)) [31] was 1, the HI titer (hemagglutinin inhibition assay) (n (HI titer = 2^n)) [32] was 6.5 and the HI titer (hemagglutinin inhibition assay) (n (HI titer = 2^n)) [33] was 6. It also gave an HI titer (hemagglutinin inhibition assay) (n (HI titer = 2^n)) [34] of 5, an HI titer (hemagglutinin inhibition assay) (n (HI titer = 2^n)) [35] of 6.5 and an HI titer (hemagglutinin inhibition assay) (n (HI titer = 2^n)) [36] of 5. For the same binder, the HI titer (hemagglutinin inhibition assay) (n (HI titer = 2^n)) [37] was < 8, the HI titer (hemagglutinin inhibition assay) (n (HI titer = 2^n)) [38] was > 8 and the HI titer (hemagglutinin inhibition assay) (n (HI titer = 2^n)) [39] was 4. The HI titer (hemagglutinin inhibition assay) (n (HI titer = 2^n)) [40] was 6, the HI titer (hemagglutinin inhibition assay) (n (HI titer = 2^n)) [41] was 6 and the HI titer (hemagglutinin inhibition assay) (n (HI titer = 2^n)) [42] was 5.5.

B4: 13D4 chimeric antibody LV (antibody, V domains shown)
VH: QVQLQQSGAELMKPGASVKISCKATGYTFSGHWIEWVKQRPGHGLEWIGEILPGSGNIHYNEKFKGKATFAADTSSNTAYMQLSSLTSEDSAVYYCARLGTTAVERDWYFDVWGQGTLVTVSS
VL: DIVMTQSQKFMSASVGDRVSVTCKASQNVGTHLAWYQQKPGQSPKALIYSASYRYSGVPDRFTGSGSGTDFTLTISNVQSGDLADYFCQQYNNFPLTFGAGTKLEIKR
B4 gave an HI titer (hemagglutinin inhibition assay) (n (HI titer = 2^n)) [19] of 7, an HI titer (hemagglutinin inhibition assay) (n (HI titer = 2^n)) [20] of 2 and an HI titer (hemagglutinin inhibition assay) (n (HI titer = 2^n)) [21] of 2. It also gave an HI titer (hemagglutinin inhibition assay) (n (HI titer = 2^n)) [22] of 4, an HI titer (hemagglutinin inhibition assay) (n (HI titer = 2^n)) [23] of 3 and an HI titer (hemagglutinin inhibition assay) (n (HI titer = 2^n)) [24] of 3. For the same binder, the HI titer (hemagglutinin inhibition assay) (n (HI titer = 2^n)) [25] was 4, the HI titer (hemagglutinin inhibition assay) (n (HI titer = 2^n)) [26] was 4 and the HI titer (hemagglutinin inhibition assay) (n (HI titer = 2^n)) [27] was 4. For the same binder, the HI titer (hemagglutinin inhibition assay) (n (HI titer = 2^n)) [28] was > 8, the HI titer (hemagglutinin inhibition assay) (n (HI titer = 2^n)) [29] was 4 and the HI titer (hemagglutinin inhibition assay) (n (HI titer = 2^n)) [30] was 6. The HI titer (hemagglutinin inhibition assay) (n (HI titer = 2^n)) [32] was 6, the HI titer (hemagglutinin inhibition assay) (n (HI titer = 2^n)) [33] was 7 and the HI titer (hemagglutinin inhibition assay) (n (HI titer = 2^n)) [34] was 4. The HI titer (hemagglutinin inhibition assay) (n (HI titer = 2^n)) [35] was 6, the HI titer (hemagglutinin inhibition assay) (n (HI titer = 2^n)) [36] was 5.5 and the HI titer (hemagglutinin inhibition assay) (n (HI titer = 2^n)) [37] was > 8. The HI titer (hemagglutinin inhibition assay) (n (HI titer = 2^n)) [38] was > 8, the HI titer (hemagglutinin inhibition assay) (n (HI titer = 2^n)) [39] was 3 and the HI titer (hemagglutinin inhibition assay) (n (HI titer = 2^n)) [40] was 5.5. The HI titer (hemagglutinin inhibition assay) (n (HI titer = 2^n)) [41] was 4 and the HI titer (hemagglutinin inhibition assay) (n (HI titer = 2^n)) [42] was 6.5.

B5: 13D4 single chain antibody (scFv)
scFv: QVQLQQSGAELMKPGASVKISCKATGYTFSGHWIEWVKQRPGHGLEWIGEILPGSGNIHYNEKFKGKATFAADTSSNTAYMQLSSLTSEDSAVYYCARLGTTAVERDWYFDVWGQGTTVTESLEDPRVPSSNSGGGGSGGGGSGGGGSDIVMTQSQKFMSASVGDRVSVTCKASQNVGTHLAWYQQKPGQSPKALIYSASYRYSGVPDRFTGSGSGTDFTLTISNVQSGDLADYFCQQYNNFPLTFGAGTKLEIKR
Binder B5 has a hemagglutination inhibition (HI) activity (fold dilution (from 0.18 mg/ml)) [1] of 8.
